Measurements: patent US20210261685A1 (Alector, published 2021)
Changes are numbered by the printed parent chain.

T1: Recombinant human MerTK human Fc Chimera protein (R&D systems, Cat #391-MR-100) (human, UniProt Q12866 26-499, limits assumed)
T1 construct: Bought; also called recombinant human MerTK protein; MerTK-Fc
T1 sequence: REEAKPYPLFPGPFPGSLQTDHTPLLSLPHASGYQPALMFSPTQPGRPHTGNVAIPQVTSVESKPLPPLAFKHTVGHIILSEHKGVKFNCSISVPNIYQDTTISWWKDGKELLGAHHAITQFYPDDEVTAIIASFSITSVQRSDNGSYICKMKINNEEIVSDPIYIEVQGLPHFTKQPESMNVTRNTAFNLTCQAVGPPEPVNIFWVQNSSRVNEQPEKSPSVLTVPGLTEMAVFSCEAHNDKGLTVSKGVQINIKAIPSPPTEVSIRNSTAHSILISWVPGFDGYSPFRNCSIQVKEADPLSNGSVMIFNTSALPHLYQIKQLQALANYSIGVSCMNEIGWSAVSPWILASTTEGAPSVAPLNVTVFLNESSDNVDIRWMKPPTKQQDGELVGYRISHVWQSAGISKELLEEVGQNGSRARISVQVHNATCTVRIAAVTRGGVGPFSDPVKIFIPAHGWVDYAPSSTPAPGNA

T2: human Axl ECD construct (Full Axl) with linker+His+Avi tag (human, UniProt P30530 26-451)
T2 construct: tested as Expi293 supernatant; also called ECD domain of human Axl
T2 sequence: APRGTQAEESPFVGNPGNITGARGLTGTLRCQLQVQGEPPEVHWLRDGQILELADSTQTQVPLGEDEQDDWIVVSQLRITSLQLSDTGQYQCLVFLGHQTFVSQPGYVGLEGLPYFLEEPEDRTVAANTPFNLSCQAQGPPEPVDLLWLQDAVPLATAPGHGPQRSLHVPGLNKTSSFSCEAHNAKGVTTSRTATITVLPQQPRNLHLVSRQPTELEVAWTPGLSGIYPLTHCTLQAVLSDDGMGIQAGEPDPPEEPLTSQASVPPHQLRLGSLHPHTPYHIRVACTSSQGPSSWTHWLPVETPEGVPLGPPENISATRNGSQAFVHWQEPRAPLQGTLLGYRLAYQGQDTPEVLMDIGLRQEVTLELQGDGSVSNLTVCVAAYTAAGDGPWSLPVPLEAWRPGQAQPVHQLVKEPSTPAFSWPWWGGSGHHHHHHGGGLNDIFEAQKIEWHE

B1: MTK-21 (antibody, human IgG1, V domains shown)
VH: QIQLVQSGPELKKPGETVKISCKASGYTFTNFGMTWVRQAPGMDLKWMGWINTYTGEPKYADDFKGRFALSLETSASTAYLQITNFKNEDTATYFCARGGGRLGLRPLDYWGQGTTLTVSS
VL: DIQMTQTTSSLSASLGDRVTISCRASQDINNYLNWYQQKPDGTVKLLIYYTSSLHSGVPSRFSGSGSGTDYSLTITNLEQEDIATYFCQQGNTLPWTFGGGTRLEIK
B2: MTK-29 (antibody, human IgG1, V domains shown)
VH: QIQLVQSGPELKKPGETVKISCKSSGFTFTTYGMSWVKQAPGKGLKWMGWINTYSGVPTYTDDFKGRFAFSLETSASTASLQINNLKNEDTATYFCARYTNYGYFDYWGQGTTLTVSS
VL: QIVLSQSPAILSASPGEKVTMTCRATSSVGYMHWYQQKPGSSPKPWIYATSNLASGVPARFSGSGSGTSYSLTISRVEAEHAATYYCQQWGSNPFTFGSGTKLEIK
B3: MTK-33 (antibody, human IgG1, V domains shown)
VH: QVQLQQPGPELVRPGTSVKLSCKASGYTFTSYWMHWIKQRPGQGLEWIGVIDPSDNYINYNQKFKGKATLTVDTSSSTAYLQLSSLTSEDSAVYYCAREAGTRGYFDYWGQGTTLTVSS
VL: SIVMTQTPKFLLVSAGDRVIITCKASQSVSNTVAWYQQKPGQSPKLLIYYASNRYTGVPDRFTGSGYGTDFTFTISTVQAEDLAVYFCQQDYRSPFTFGSGTQLEMK
B4: MTK-07 (antibody, human IgG1, V domains shown)
VH: DVQLQESGPGLVKPSQSLSLTCSVTGYSITSGYYWNWIRQFPGNTLEWMGYMSFDGDNKFNPSLKNRISITRDTSKNQFFLRLNSVTTEDTATYYCARGGYNYGSTEANWGQGTLVTVST
VL: QIVLTQSPAIMSAFPGEKVTITCSASSSVTYMHWFQQKPGTSPKLWIFSTSNLASGVPARFSGSGSGTSYSLTISRMEAEDAATYYCQQRSSYPFTFGSGTKLEIK
B5: MTK-15 (antibody, human IgG1, V domains shown)
VH: QIQLVQSGPELKKPGETVKISCKASGYTFTNYGVHWVKQAPGKGLKWMGWINTYTGEPTYADDFKGRFAFSLETSASTAYLQINNLKNEDMATYFCARGNRYAYMDYWGQGTSVTVSS
VL: B2 VL with T26S, G30S, P39S, H81D, G91S, F95R, S99G
B6: MTK-16 (antibody, human IgG1, V domains shown)
VH: LIQLVQSGPELKKPGETVKISCKASGYTFTNHGMNWVKQDPGKGLKWMGWINTYTGEPTYADDFKGRFVFSMETSASAAFLQINNLKNEDTATYFCARKGVTAARYFDYWGQGTTLTVSS
VL: DIVMTQSPKFMSTSVGDRVSITCKASQNVRTAVAWYKKKPGQSPKALINLASNRHTGVPDRFTGSGSGTDFTLTISNVQSEDLADYFCLQHWNYPLTFGGGTKLEIK
B7: MTK-06 (antibody, human IgG1, V domains shown)
VH: QIQLVQSGPELKKPGETVKISCKASGYTFTNYGMNWVKQAPGKGLKWMGWINTNTGEPTYAEEFKGRFAFSLETSASTAYLQINNLKNEDTATYFCARYYNYWYFDVWGAGTTVTVSS
VL: B2 VL with T26S, G30S, H81D, G91S, N93K, F95P, S99G
B8: MTK-10 (antibody, human IgG1, V domains shown)
VH: QVTLKESGPGILQPSQTLSLTCSFSGFSLTTSGMGVGWIRQPSGKGLEWLAHIWSDDDKRSNPALKSRLTISQDSSTNQVFLKIASVDTADSATYYCSHLTPVREFAYWGPGTLVTVSE
VL: DIQMTQTTSSLSASLGDRVTISCSASQGISNYLNWFQQKPDGTVKLLIYYTSRLHSGVPSRFSGSGSGTDFSLTISNLEPEDIATYYCQQYTKLPYTFGGGTKLEIK
B9: MTK-30 (antibody, human IgG1, V domains shown)
VH: QVQLQQPGTELVRPGASVKLSCKASGYTFTSYWMHWVKQRPGQGLEWIGNLNPNNGGTYYNEKFKSKATLTVDKSSSTAYMQLSSLTSEDSAVYYCARQILLYFDYWGQGTTLTVSS
VL: DVLMTQTPLSLPVSLGDQASISCRSSQSIVHSNGDTYLEWYLQKPGQSPKLLIYKVSNRFSGVPDRFSGSGSGTDFTLKISRVEAEDLGVYYCFQGSHVPWTFGGGTKLEIK

What was measured:
[1] = target: T1, Recombinant human MerTK human Fc …; assay: competition ELISA: His-tagged Gas6 (3 ug/ml) binding to captured human MerTK-Fc, anti-His-HRP detection; blocked ligand Gas6
Description: Rabbit anti-human IgG polyclonal antibody (Jackson ImmunoResearch, Cat #309-005-008) was captured to a high-protein binding plate at 2 μg/ml 4° C. overnight. After washing with 0.05% Tween20 in PBS three times, 5% BSA in PBS was added for 1 hour. Recombinant human MerTK human Fc Chimera protein (R&D systems, Cat #391-MR-100) was added at 2 μg/ml for 1 hour and the plates were then washed. Anti-MerTK antibodies were titrated to final concentration range of between 66.6 nM to 4 pM and then 40 μl of serially diluted antibody and 40 μl of His tag-conjugated recombinant Gas6 protein (R&D systems, Cat #885-GSB-050) at 3 μg/ml or His tag-conjugated recombinant ProS protein (R&D systems, Cat #9489-PS-100) at 20 μg/ml. After a further incubation for 1 hour, plates were washed and incubated for 1 hour with HRP-conjugated anti-6×His tag antibody (Abcam, Cat #ab1187). Plates were then washed and an HRP substrate (TMB) was used to develop the plates. After sufficient color change was observed, the reaction was stopped by adding 50 μl 2N H₂SO₄ and the OD was measured using a spectrophotometer (BioTek).

[2] = target: T2, human Axl ECD construct (Full Axl) with …; assay: SPR, Carterra LSA, antibody immobilised, construct supernatant injected
Description: Binding of anti-MerTK antibodies of the present disclosure to these domain-swapped chimera or deletion mutants (prepared as described above) was tested by Surface Plasmon Resonance (SPR) using Carterra LSA. Purified anti-MerTK antibodies were immobilized in duplicate on a HC30M chip (Carterra) by amine coupling, following the manufacturer's instructions (described previously). Supernatants containing the constructs were diluted 1:1 with running buffer containing 0.5 mg/mL BSA (HBS-TE, Carterra) and injected over the immobilized antibodies. The surface was regenerated with 10 mM Glycine pH2.0 after each construct injection. Sensorgrams were analyzed using Carterra Epitope software to identify patterns of construct binding. Loss of binding to MerTK constructs with domains deleted or swapped in from Axl and/or gain of binding to Axl constructs with MerTK domains swapped in were evaluated. Data from these studies was used to construct a domain binding map for anti-MerTK antibodies and their binding to various domains of human MerTK.

Row | Binder | IC50 (read off the curve) [1] | binding result [2]
1 | B1 | ~6 nM | no binding
2 | B2 |  | no binding
3 | B3 |  | no binding
4 | B4 | ~8 nM | 
5 | B5 |  | no binding
6 | B6 | ~7 nM | no binding
7 | B7 |  | no binding
8 | B8 |  | no binding
9 | B9 |  | no binding
